What was measured:
Conditions in all cases: remark: other sources report otherwise
[1] = biological target: T1, LFA-1 (lymphocyte function-associated antigen-1), purified heterodimer captured on ELISA plates (human), P20701; assay: LFA-1/small molecule ELISA: sICAM-1 titrated against 25 nM fluorescein-labelled compound 2B on antibody-captured LFA-1
[2] = biological target: T1, LFA-1 (lymphocyte function-associated …); assay: LFA-1/ICAM-1 ELISA: sICAM-1 titrated against ICAM-1-Ig on antibody-captured LFA-1; reference compound 3 (2 nM IC50)
[3] = biological target: T1, LFA-1 (lymphocyte function-associated …)

T1 sequence (P20701 26-1170 limits assumed, form in doubt, chain 1 of 2): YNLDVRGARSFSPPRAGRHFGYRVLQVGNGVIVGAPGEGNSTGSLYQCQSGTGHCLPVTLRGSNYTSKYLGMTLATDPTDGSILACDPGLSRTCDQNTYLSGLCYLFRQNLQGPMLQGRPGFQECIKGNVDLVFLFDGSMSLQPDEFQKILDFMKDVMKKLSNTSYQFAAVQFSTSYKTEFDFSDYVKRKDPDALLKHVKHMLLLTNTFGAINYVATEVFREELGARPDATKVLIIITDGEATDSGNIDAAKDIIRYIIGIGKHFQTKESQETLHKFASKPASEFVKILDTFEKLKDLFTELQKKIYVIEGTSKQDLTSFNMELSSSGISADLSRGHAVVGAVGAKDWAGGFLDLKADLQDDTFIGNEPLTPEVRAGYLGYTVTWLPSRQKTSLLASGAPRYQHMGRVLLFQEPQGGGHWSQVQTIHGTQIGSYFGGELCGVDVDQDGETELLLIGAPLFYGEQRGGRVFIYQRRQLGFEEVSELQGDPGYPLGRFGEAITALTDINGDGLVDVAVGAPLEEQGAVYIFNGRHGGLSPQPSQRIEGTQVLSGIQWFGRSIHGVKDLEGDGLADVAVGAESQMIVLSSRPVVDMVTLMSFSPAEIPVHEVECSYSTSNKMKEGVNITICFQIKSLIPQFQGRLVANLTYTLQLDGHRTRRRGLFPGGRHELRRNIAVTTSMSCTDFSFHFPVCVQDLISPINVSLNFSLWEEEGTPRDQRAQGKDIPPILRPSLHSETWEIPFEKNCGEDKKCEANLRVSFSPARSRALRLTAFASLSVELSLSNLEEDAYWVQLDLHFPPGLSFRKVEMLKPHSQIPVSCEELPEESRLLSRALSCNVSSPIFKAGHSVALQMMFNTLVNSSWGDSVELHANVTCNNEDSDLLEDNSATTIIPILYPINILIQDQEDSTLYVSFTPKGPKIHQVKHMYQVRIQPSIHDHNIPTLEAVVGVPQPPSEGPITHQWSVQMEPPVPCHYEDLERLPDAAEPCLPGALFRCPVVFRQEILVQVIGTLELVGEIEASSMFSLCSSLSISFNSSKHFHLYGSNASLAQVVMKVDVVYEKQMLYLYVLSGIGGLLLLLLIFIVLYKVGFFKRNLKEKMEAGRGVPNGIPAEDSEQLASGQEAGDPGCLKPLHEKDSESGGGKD
T1 sequence (P05107 23-769 limits assumed, form in doubt, chain 2 of 2, further chain): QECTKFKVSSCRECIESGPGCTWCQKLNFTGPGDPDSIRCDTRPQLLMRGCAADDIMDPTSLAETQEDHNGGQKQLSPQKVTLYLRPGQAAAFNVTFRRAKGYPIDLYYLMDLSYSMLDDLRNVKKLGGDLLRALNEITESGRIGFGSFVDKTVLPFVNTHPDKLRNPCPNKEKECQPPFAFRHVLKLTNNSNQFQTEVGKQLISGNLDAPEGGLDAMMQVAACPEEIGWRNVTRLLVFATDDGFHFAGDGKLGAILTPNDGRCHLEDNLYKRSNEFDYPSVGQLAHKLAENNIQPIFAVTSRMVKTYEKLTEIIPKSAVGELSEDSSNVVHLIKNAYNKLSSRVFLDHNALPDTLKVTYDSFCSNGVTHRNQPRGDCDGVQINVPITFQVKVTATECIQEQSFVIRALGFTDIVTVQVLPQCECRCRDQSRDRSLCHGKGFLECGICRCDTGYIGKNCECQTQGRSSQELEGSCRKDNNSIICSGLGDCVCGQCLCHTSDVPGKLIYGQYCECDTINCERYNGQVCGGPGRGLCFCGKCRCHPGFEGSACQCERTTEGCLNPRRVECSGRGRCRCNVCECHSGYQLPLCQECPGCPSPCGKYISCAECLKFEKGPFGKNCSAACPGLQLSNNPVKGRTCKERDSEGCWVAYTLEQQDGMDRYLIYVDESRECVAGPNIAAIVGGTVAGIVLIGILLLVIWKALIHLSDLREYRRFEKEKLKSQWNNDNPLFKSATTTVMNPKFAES

B1: sICAM-1 (soluble ICAM-1), P05362 28-480 (ligand, UniProt P05362 28-480, looked up)
chain: QTSVSPSKVILPRGGSVLVTCSTSCDQPKLLGIETPLPKKELLLPGNNRKVYELSNVQEDSQPMCYSNCPDGQSTAKTFLTVYWTPERVELAPLPSWQPVGKNLTLRCQVEGGAPRANLTVVLLRGEKELKREPAVGEPAEVTTTVLVRRDHHGANFSCRTELDLRPQGLELFENTSAPYQLQTFVLPATPPQLVSPRVLEVDTQGTVVCSLDGLFPVSEAQVHLALGDQRLNPTVTYGNDSFSAKASVSVTAEDEGTQRLTCAVILGNQSQETLQTVTIYSFPAPNVILTKPEVSEGTEVTVKCEAHPRAKVTLNGVPAQPLGPRAQLLLKATPEDNGRSFSCSATLEVAGQLIHKNQTRELRVLYGPRLDERDCPGNWTWPENSQQTPMCQAWGNPLPELKCLKDGTFPLPIGESVTVTRDLEGTYLCRARSTQGEVTRKVTVNVLSPRYE
With B1 the IC50 [1] was 1200 nM, the fold IC50 against compound 3 [2] was greater than 100 fold and the Schild regression y-intercept [3] was 8.51.

— patent US20090155176A1
